The supplement of paper PMC12764529
± gives the half width of the 95% confidence interval.

Key:
[1] = folding stability dG unfold (combined trypsin and chymotrypsin); higher = more stable
Method in brief: (§1)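 Unfolding free energy was derived, per protease or combined, against a sequence-predicted unfolded-state K50 and a shared folded-state K50, starting from K50 inferred by Bayesian fitting of sequencing counts. Digestion with trypsin and chymotrypsin was carried out on designed mini-proteins under 80 residues without cysteine in a PA-tagged cDNA display construct. Only designs with AlphaFold2 dimer inter-PAE above 15 were kept.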

[2] = folding stability dG unfold from trypsin proteolysis; higher = more stable
Method in brief: as §1

[3] = folding stability dG unfold from chymotrypsin proteolysis; higher = more stable
Method in brief: as §1

SAGGSAGGMIPVKTTETTTLPDGSTVVTESLTIIDPTSNTSTTTTLKTTIINTSTGTTIPPSSLSAGGSAGG [r6_866_JUSTAS]
folding stability dG unfold [1]: 1 ± 0.079 kcal/mol
folding stability dG unfold [2]: 1.38 ± 0.032 kcal/mol
folding stability dG unfold [3]: 0.319 ± 0.073 kcal/mol

SAGGSAGGMIVLPPGATVDFDPSVARLTVTVKDPNSDKSTTTTYDVPPTATVTSAPGTIVVNVPSAGGSAGG [r6_804_JUSTAS]
folding stability dG unfold [1]: 0.171 ± 0.073 kcal/mol
folding stability dG unfold [2]: -0.656 ± 0.14 kcal/mol
folding stability dG unfold [3]: 0.476 ± 0.11 kcal/mol

SAGGSAGGMKEGEEFEIELPDKYKVKIRVKDNIIEVEFPPGLRVRAEILENGEVKVYLPPELKPSAGGSAGG [r6_970_TrMRF]
folding stability dG unfold [1]: 1.7 ± 0.21 kcal/mol
folding stability dG unfold [2]: 2.04 ± 0.087 kcal/mol
folding stability dG unfold [3]: 1.42 ± 0.048 kcal/mol

SAGGSAGGMKIEPIAEDEDYIVVRVEPDLPELLEELGLEVVGVEEEGDYVIVVVKVPPEVREKFSAGGSAGG [r6_108_TrMRF]
folding stability dG unfold [1]: 0.336 ± 0.11 kcal/mol
folding stability dG unfold [2]: 0.649 ± 0.022 kcal/mol
folding stability dG unfold [3]: -0.0352 ± 0.11 kcal/mol

SAGGSAGGMKIKVKFTITKSDPNSDSPVPRVITKEFESLEEAEKEFNKLKNLPSGYTVEVEIVESAGGSAGG [r7_0_JUSTAS]
folding stability dG unfold [1]: 3.62 ± 0.1 kcal/mol
folding stability dG unfold [2]: 3.16 ± 0.11 kcal/mol
folding stability dG unfold [3]: 3.82 ± 0.043 kcal/mol

SAGGSAGGMKTITIELPPGPVRIRVRLAATGEEVTVEVDAETPTVTITIPEEGAEIVEIEIEPVSAGGSAGG [r6_977_TrROS_Hall]
folding stability dG unfold [1]: 2.59 ± 0.18 kcal/mol
folding stability dG unfold [2]: 2.06 ± 0.065 kcal/mol
folding stability dG unfold [3]: 2.66 ± 0.13 kcal/mol

SAGGSAGGMKTTTYTFPGTLEEAKALAEELVAALPPHAKEVTVEVTPDPATGTVTVTITVKELASAGGSAGG [r6_164_JUSTAS]
folding stability dG unfold [1]: 3.46 ± 0.13 kcal/mol
folding stability dG unfold [2]: 3.17 ± 0.19 kcal/mol
folding stability dG unfold [3]: 3.63 ± 0.064 kcal/mol

SAGGSAGGMKTVTTPVYAVMPEEEAEALAKELEEKYPNVEIEVEREELPDGRVRVTITVTKPLGSAGGSAGG [r6_105_JUSTAS]
folding stability dG unfold [1]: 1.4 ± 0.067 kcal/mol
folding stability dG unfold [2]: 1.19 ± 0.022 kcal/mol
folding stability dG unfold [3]: 1.55 ± 0.054 kcal/mol

SAGGSAGGMKVEVVFLVPGEVFSKFTPPLSEDDPVLLVLVFDVPAPPPVPRYVYDPETGEWRPESAGGSAGG [r6_211_TrMRF]
folding stability dG unfold [1]: 3.22 ± 0.11 kcal/mol
folding stability dG unfold [2]: 2.39 ± 0.047 kcal/mol
folding stability dG unfold [3]: 3.72 ± 0.099 kcal/mol

SAGGSAGGMKVIEIDLPDGSKLKIVIYKDGTLPAYLPEGNKVIVLEIDKNGKIKSVKVFDAKDISAGGSAGG [r6_81_TrMRF]
folding stability dG unfold [1]: 3.21 ± 0.25 kcal/mol
folding stability dG unfold [2]: 2.87 ± 0.16 kcal/mol
folding stability dG unfold [3]: 3.52 ± 0.072 kcal/mol

SAGGSAGGMKVKIKLGPGEEVEIEVVEDKETNKLYFKIVNKKTKKVYVFETLEEAKNMSLEELLSAGGSAGG [r6_739_TrROS_Hall]
folding stability dG unfold [1]: 3.22 ± 0.12 kcal/mol
folding stability dG unfold [2]: 1.78 ± 0.065 kcal/mol
folding stability dG unfold [3]: 3.73 ± 0.07 kcal/mol

SAGGSAGGMKVLATTEDGEVYLFDLSEFDLSFEEWLNLGEEELAELLRKAFPEKEITLELVEEPSAGGSAGG [r6_164_TrMRF]
folding stability dG unfold [1]: 3.02 ± 0.077 kcal/mol
folding stability dG unfold [2]: 2.5 ± 0.076 kcal/mol
folding stability dG unfold [3]: 3.3 ± 0.047 kcal/mol

SAGGSAGGMKVRVKIEVEGKTLEIEIEVPEEKREEALEKAKKLAEKLAEELDVEVKIVEVEEEPSAGGSAGG [r6_459_TrROS_Hall]
folding stability dG unfold [1]: 2.01 ± 0.12 kcal/mol
folding stability dG unfold [2]: 1.04 ± 0.034 kcal/mol
folding stability dG unfold [3]: 2.41 ± 0.073 kcal/mol

SAGGSAGGMKVYEIEVPPSSGLTPEEIRARVREEIEASNNAPVEVTVEVDPNGRLTVTIKITPLSAGGSAGG [r6_819_JUSTAS]
folding stability dG unfold [1]: 1.49 ± 0.13 kcal/mol
folding stability dG unfold [2]: 1.83 ± 0.036 kcal/mol
folding stability dG unfold [3]: 1.28 ± 0.054 kcal/mol

SAGGSAGGMKYLDVVLHPDTGATYSSLEEIKASSSGPFQIKTGDGKWIYLPVEELSSLPTPLASSAGGSAGG [r6_685_JUSTAS]
folding stability dG unfold [1]: 0.247 ± 0.065 kcal/mol
folding stability dG unfold [2]: 0.0571 ± 0.039 kcal/mol
folding stability dG unfold [3]: 0.331 ± 0.048 kcal/mol

SAGGSAGGMLLSSEEELEEELKRVREEGIGEVEVQVVDEKGNIHTLPTFVENPGPEPLPNEKLLSAGGSAGG [r6_258_JUSTAS]
folding stability dG unfold [1]: 0.628 ± 0.13 kcal/mol
folding stability dG unfold [2]: 0.558 ± 0.066 kcal/mol
folding stability dG unfold [3]: 0.643 ± 0.049 kcal/mol

SAGGSAGGMLRVRVETTLPGSGETLDLELEFPSEEEARRAIEALVPPEERAEVRVEFLPPGVPESAGGSAGG [r6_657_JUSTAS]
folding stability dG unfold [1]: 1.06 ± 0.1 kcal/mol
folding stability dG unfold [2]: -0.156 ± 0.37 kcal/mol
folding stability dG unfold [3]: 1.44 ± 0.08 kcal/mol

SAGGSAGGMLTFTFSLSEIPPYPSGSLSLEEVKKRMEPILRKLLGRKDVKIKVESLPDGTIRVTVESAGGSA [r15_562_JUSTAS]
folding stability dG unfold [1]: 4.37 ± 0.27 kcal/mol
folding stability dG unfold [2]: 3.95 ± 0.25 kcal/mol
folding stability dG unfold [3]: 4.99 ± 0.23 kcal/mol

SAGGSAGGMPAEWLDEIEAPPGNYRAELYKTEKEVRIIITLPNGEKLELTFEVKPDEEILVLPGSAGGSAGG [r6_379_TrMRF]
folding stability dG unfold [1]: 2.05 ± 0.097 kcal/mol
folding stability dG unfold [2]: 1.89 ± 0.057 kcal/mol
folding stability dG unfold [3]: 2.12 ± 0.17 kcal/mol

SAGGSAGGMPVEVTETPVGTFPDGSTVTRTETVLPGGEVLVETTVTYPDGSSTTTTRRVPPELASAGGSAGG [r6_263_JUSTAS]
folding stability dG unfold [1]: 2.43 ± 0.092 kcal/mol
folding stability dG unfold [2]: 2.39 ± 0.084 kcal/mol
folding stability dG unfold [3]: 2.41 ± 0.059 kcal/mol

SAGGSAGGMTAVEVKEETVPITLTSSFFPGGVPVPGAAVSTITITTTTTIEPPTGKTVKVTVAGSAGGSAGG [r6_424_JUSTAS]
folding stability dG unfold [1]: -0.423 ± 0.074 kcal/mol
folding stability dG unfold [2]: -0.318 ± 0.037 kcal/mol
folding stability dG unfold [3]: -0.658 ± 0.12 kcal/mol

SAGGSAGGMTFTIPPGKPVTIRVYNRNGELIEEVTVTGAGARIHVSEIPGTGELKITRIDEIPPSAGGSAGG [r6_523_TrMRF]
folding stability dG unfold [1]: 2.72 ± 0.087 kcal/mol
folding stability dG unfold [2]: 2.33 ± 0.049 kcal/mol
folding stability dG unfold [3]: 2.91 ± 0.071 kcal/mol

SAGGSAGGMTLKIKVAPGAVIRIYNKDGELIEEIEVEEGEEVEIEIELPEEDLENLRIEILPAPSAGGSAGG [r6_471_TrROS_Hall]
folding stability dG unfold [1]: 4.42 ± 0.25 kcal/mol
folding stability dG unfold [2]: 3.96 ± 0.27 kcal/mol
folding stability dG unfold [3]: 4.6 ± 0.079 kcal/mol

SAGGSAGGMTLTLELTLENGKKVRIEVEVNENGSLKVKITYPNGKKVEIEVNMSLEELLKKLLSSAGGSAGG [r6_808_TrROS_Hall]
folding stability dG unfold [1]: 3.91 ± 0.29 kcal/mol
folding stability dG unfold [2]: 3.75 ± 0.26 kcal/mol
folding stability dG unfold [3]: 3.66 ± 0.14 kcal/mol

SAGGSAGGMTTTEISTKKLPDGTWATTVTTTTITATNGVPVTTSTPTTIINPGDPSVAIAAALSSAGGSAGG [r6_129_JUSTAS]
folding stability dG unfold [1]: -0.173 ± 0.057 kcal/mol
folding stability dG unfold [2]: 0.209 ± 0.013 kcal/mol
folding stability dG unfold [3]: -1 ± 0.29 kcal/mol

SAGGSAGGMTVTTTSSFDPTSPTANTLTTTYVSPEELKRPEIQALPDLPGKTLEFPTTTPVPPPSAGGSAGG [r6_768_JUSTAS]
folding stability dG unfold [1]: 0.431 ± 0.085 kcal/mol
folding stability dG unfold [2]: 0.679 ± 0.031 kcal/mol
folding stability dG unfold [3]: 0.0452 ± 0.048 kcal/mol

SAGGSAGGMVETKLVESEELPGNRRVLTYRVTEPDSLYRVTVELTLDPSGTVLSSKTTTEPIPLSAGGSAGG [r6_20_JUSTAS]
folding stability dG unfold [1]: 1.04 ± 0.073 kcal/mol
folding stability dG unfold [2]: 0.846 ± 0.053 kcal/mol
folding stability dG unfold [3]: 1.12 ± 0.093 kcal/mol
